Measured values as given in patent US12072338B2, “Pharmaceutical peptides for the treatment of inflammatory diseases” (PROTAGONISTS LTD., priority 2007, dated 2024).
“Also recorded” adds a separate entry of the source. Like-named read-outs stand apart in the source and are kept apart here. Ends that are not written are not given here.

Legend:
MCP-4 = target: T1, MCP-4 (Homo sapiens, UniProt Q99616); assay: Micro-array analysis of chemokine binding peptides: MCP-4; conditions: limit = start of the upper 75% of that peptide's response range
T1 construct: purchased 300-24
T1 sequence (Q99616 17-98): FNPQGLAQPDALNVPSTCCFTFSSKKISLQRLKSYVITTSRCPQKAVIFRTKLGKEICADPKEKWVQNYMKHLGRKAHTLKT
In short: (§1)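 Chemokines printed at 25 and 50 μg/ml on protein microarray slides, blocked, then probed 1 h at RT with peptide-displaying recombinant phage (10^7 pfu/μl). Bound phage detected with mouse anti-M13 then Cy3 anti-mouse IgG. Cy3 fluorescence scanned, reported as relative fluorescence versus chemokine concentration.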

Fractalkine = target: T2, Fractalkine (Homo sapiens, UniProt P78423); assay: Micro-array analysis of chemokine binding peptides: Fractalkine
T2 construct: purchased 300-31
T2 sequence (P78423 25-100 limits assumed): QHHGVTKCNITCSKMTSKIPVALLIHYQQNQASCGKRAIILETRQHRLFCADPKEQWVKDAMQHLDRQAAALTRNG
In short: as §1

SDF1-α = target: T3, SDF1-α (Homo sapiens, UniProt P48061); assay: Micro-array analysis of chemokine binding peptides: SDF1-α
T3 construct: purchased 300-28a
T3 sequence (P48061 22-89 limits assumed): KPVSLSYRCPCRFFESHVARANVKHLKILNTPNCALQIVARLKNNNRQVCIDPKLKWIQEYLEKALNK
In short: as §1

Mig = target: T4, Mig (Homo sapiens, UniProt Q07325); assay: Micro-array analysis of chemokine binding peptides: Mig; conditions: limit = start of the upper 75% of that peptide's response range
T4 construct: purchased 300-26
T4 sequence (Q07325 23-125): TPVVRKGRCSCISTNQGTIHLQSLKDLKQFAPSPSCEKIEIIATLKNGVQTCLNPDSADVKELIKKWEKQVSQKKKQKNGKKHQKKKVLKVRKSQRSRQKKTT
In short: as §1

Eotaxin 3 = target: T5, Eotaxin 3 (Homo sapiens, UniProt Q9Y258); assay: Micro-array analysis of chemokine binding peptides: Eotaxin 3; conditions: limit = start of the upper 75% of that peptide's response range
T5 construct: purchased 300-48
T5 sequence (Q9Y258 24-94): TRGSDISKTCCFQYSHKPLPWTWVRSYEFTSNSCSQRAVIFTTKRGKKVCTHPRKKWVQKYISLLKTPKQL
In short: as §1

SDF1-β = target: T6, SDF1-β (Homo sapiens, UniProt P48061); assay: Micro-array analysis of chemokine binding peptides: SDF1-β
T6 construct: purchased 300-28b
T6 sequence (P48061 22-93): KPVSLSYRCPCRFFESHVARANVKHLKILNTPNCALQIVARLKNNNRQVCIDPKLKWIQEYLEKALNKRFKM
In short: as §1

MIP3-α = target: T7, MIP3-α (Homo sapiens, UniProt P78556); assay: Micro-array analysis of chemokine binding peptides: MIP3-α
T7 construct: purchased 300-29A
T7 sequence (P78556 27-96): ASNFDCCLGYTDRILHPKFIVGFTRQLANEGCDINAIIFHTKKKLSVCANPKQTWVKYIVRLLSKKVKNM
Procedure: (1) Printing: Chemokine (CK) solution (in water) was serially diluted with Print Reagent (GenTel BioSurfaces USA) to final concentrations of 50 μg and 25 μg/ml. BSA/BSA-Biotin control solutions (in water) were diluted with Print Reagent to 100 μg/ml. Amplified stock of M13 phage control (M13KEgIII Cloning Vector, New England Biolabs, Cat.No.E8101S) was stored in Tris Buffered Saline (TBS; pH7.5, 4° C.) and diluted with Print Reagent to the working titre (10^8 pfu/μl). An automated spotting robot (16 pin print tool, 0.4 mm head; BioRobotics, UK) was used to print the CK/BSA control/M13 control, 5 repeats per sample (CK 25 μg/ml and 50 μg/ml; BSA 100 μg/ml; M13 20 μl), on PATH Protein Microarray Slides (GenTel, Prod.No. 2-1005/-1025) at […], and 50-70% relative humidity. Printed micro-array slides were stored at Room Temperature (RT) or 4° C. for at least 24 h before use. […]
(§2) (11) Analysis: Quantitative analysis of micro-array was performed by the SpotReader program of Niles Scientific (USA) and presented as Relative Fluorescence (RF) as a function of CK concentration. Micro-array readout (Cy3 fluorescence) was quantified to determine the relative binding affinities of a CBP for the CKs and by inference, the specificity of the CBP for binding to a CK.

MCP-1 = target: T8, MCP-1 (Homo sapiens, UniProt P13500); assay: Micro-array analysis of chemokine binding peptides: MCP-1; conditions: limit = start of the upper 75% of that peptide's response range
T8 construct: purchased 300-04
T8 sequence (P13500 24-99): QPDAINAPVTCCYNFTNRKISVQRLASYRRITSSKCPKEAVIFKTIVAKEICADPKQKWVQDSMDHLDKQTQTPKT
In short: as §1

SDF1 = assay: Micro-array analysis of chemokine binding peptides: SDF1 (isoform not given)
Sequence of SDF1 (P48061 22-89 limits assumed): as the sequence (P48061 22-89 limits assumed) above
Procedure: (1) Printing: Chemokine (CK) solution (in water) was serially diluted with Print Reagent (GenTel BioSurfaces USA) to final concentrations of 50 μg and 25 μg/ml. BSA/BSA-Biotin control solutions (in water) were diluted with Print Reagent to 100 μg/ml. Amplified stock of M13 phage control (M13KEgIII Cloning Vector, New England Biolabs, Cat.No.E8101S) was stored in Tris Buffered Saline (TBS; pH7.5, 4° C.) and diluted with Print Reagent to the working titre (10^8 pfu/μl). An automated spotting robot (16 pin print tool, 0.4 mm head; BioRobotics, UK) was used to print the CK/BSA control/M13 control, 5 repeats per sample (CK 25 μg/ml and 50 μg/ml; BSA 100 μg/ml; M13 20 μl), on PATH Protein Microarray Slides (GenTel, Prod.No. 2-1005/-1025) at […], and 50-70% relative humidity. Printed micro-array slides were stored at Room Temperature (RT) or 4° C. for at least 24 h before use.
(2) Blocking: Block Buffer (500 μl/partition; PATHblock, GenTel, Prod.No. 2-1014) was applied to the slide for 1 hour at room temp (RT). After removal of Block Buffer, the slide was air dried for 25 minutes;
(3) Phage Presented Peptide Binding: Amplified recombinant phage stock was stored in TBS and diluted with Wash Buffer to working titer (10^7 pfu/μl). Recombinant phage suspension (300 μl) was applied per partition and incubated at RT for 1 hour with gentle agitation.
(4) First Washing: The slides were washed twice with Wash Buffer 300 μl/partition).
(5) Primary Antibody (Ab) Labeling: The slides were incubated with the Primary Ab (1 mg/ml diluted ×2500 (Wash Reagent), 300 μl; Mouse Anti-M13 monoclonal Ab; Amersham Biosciences, UK; Product Code 27-9420-01) for 45 minutes at RT.
(6) Second Washing: The slides were washed twice with Wash Buffer (300 μl/partition).
(7) Secondary Ab Labeling: The slides were incubated with Secondary Ab (1.5 mg/ml diluted ×5000 (Wash Reagent), 300 μl; Cy3-conjugated AffiniPure Goat Anti-Mouse IgG; Jackson ImmunoReserch Labs, USA; Product Code 115-165-062).
(8) Third Washing: The slides were washed twice with Wash Buffer (300 μl/partition).
(9) Rinse: the slides were rinsed twice with Rinse Buffer (PATHrinse, GenTel, Prod.No. 2-1018) then dried well.
(10) Scanning: The peptide-bound, labeled slide was scanned (Laser Intensity 80%, Gain 80%, Resolution 10 μm) with a ScanArray Life Scanner (Packard BioChip Technologies, USA).
as §2

RANTES = target: T9, RANTES (Homo sapiens, UniProt P13501); assay: Micro-array analysis of chemokine binding peptides: RANTES
T9 construct: purchased 300-06
T9 sequence (P13501 24-91): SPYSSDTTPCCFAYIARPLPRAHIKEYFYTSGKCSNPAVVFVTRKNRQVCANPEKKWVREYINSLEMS
In short: as §1

Exodus-2 = target: T10, Exodus-2 (Homo sapiens, UniProt O00585); assay: Micro-array analysis of chemokine binding peptides: Exodus-2
T10 construct: purchased 300-35
T10 sequence (O00585 24-134): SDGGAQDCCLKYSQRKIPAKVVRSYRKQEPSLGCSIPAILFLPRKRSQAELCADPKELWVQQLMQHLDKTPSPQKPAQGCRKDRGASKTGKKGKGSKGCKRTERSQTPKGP
In short: as §1

TECK = target: T11, TECK (Homo sapiens, UniProt O15444); assay: Micro-array analysis of chemokine binding peptides: TECK
T11 construct: purchased 300-45
T11 sequence (O15444 24-150): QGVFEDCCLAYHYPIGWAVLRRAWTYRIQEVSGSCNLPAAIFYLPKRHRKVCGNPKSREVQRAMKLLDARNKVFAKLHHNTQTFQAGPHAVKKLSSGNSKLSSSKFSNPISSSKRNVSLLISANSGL
In short: as §1

IL-8 = assay: Micro-array analysis of chemokine binding peptides: IL-8; conditions: limit = start of the upper 75% of that peptide's response range
Sequence of IL-8 (P10145 28-99 limits assumed): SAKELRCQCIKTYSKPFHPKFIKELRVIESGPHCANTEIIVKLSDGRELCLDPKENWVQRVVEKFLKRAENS
In short: as §1

Eotaxin = target: T12, Eotaxin (Homo sapiens, UniProt P51671); assay: Micro-array analysis of chemokine binding peptides: Eotaxin; conditions: limit = start of the upper 75% of that peptide's response range
T12 construct: purchased 300-21
T12 sequence (P51671 24-97): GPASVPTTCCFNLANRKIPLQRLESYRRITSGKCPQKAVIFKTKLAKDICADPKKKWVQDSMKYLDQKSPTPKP
In short: as §1

I-309 = target: T13, I-309 (Homo sapiens, UniProt P22362); assay: Micro-array analysis of chemokine binding peptides: I-309; conditions: limit = start of the upper 75% of that peptide's response range
T13 construct: purchased 300-37
T13 sequence (P22362 24-96): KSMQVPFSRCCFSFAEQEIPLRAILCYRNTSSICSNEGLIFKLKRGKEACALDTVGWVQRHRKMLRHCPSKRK
In short: as §1

[1] = test system: healthy, non-disease-induced rats; assay: Effect on healthy, non-disease-induced rats; type: in vivo, rat; conditions: 30 ug/injection IP on 12 consecutive days
Procedure: P15 was injected IP (30 ug/injection) on 12 consecutive days to determine if this anti-inflammatory peptide had any effect at a therapeutic dose on healthy, non-disease-induced rats.

| Substance | binding to MCP-4 with relatively high affinity (Relative Fluorescence Units) (MCP-4) | binding to Fractalkine, stated in words (Fractalkine) | binding to Fractalkine, stated in words (Fractalkine; listed as P5) | binding to SDF1-α, stated in words (SDF1-α) | binding to Mig with relatively high affinity (Relative Fluorescence Units) (Mig) | binding to Eotaxin 3 with relatively high affinity (Relative Fluorescence Units) (Eotaxin 3) | binding to SDF1-β, stated in words (SDF1-β) | binding to MIP3-α, stated in words (MIP3-α) | binding to MCP-1 with relatively high affinity (Relative Fluorescence Units) (MCP-1) | binding to SDF1 (isoform not given), stated in words (SDF1) | binding to RANTES, stated in words (RANTES) | binding to RANTES with relatively high affinity (Relative Fluorescence Units) (RANTES; limit = start of the upper 75% of that peptide's response range) | binding to Exodus-2, stated in words (Exodus-2) | binding to TECK, stated in words (TECK) | binding to IL-8 with relatively high affinity (Relative Fluorescence Units) (IL-8) | binding to Eotaxin with relatively high affinity (Relative Fluorescence Units) (Eotaxin) | binding to I-309 with relatively high affinity (Relative Fluorescence Units) (I-309) | physiological or behavioral effect on healthy rats [1] |
| --- | --- | --- | --- | --- | --- | --- | --- | --- | --- | --- | --- | --- | --- | --- | --- | --- | --- | --- |
| LFGNDCE [CBP5] | > 2,500 RFU | bound | bound specifically and differentially | bound | > 2,500 RFU | > 2,500 RFU | bound | bound | > 2,500 RFU | bound specifically and differentially | bound specifically and differentially | > 2,500 RFU | bound | bound | > 2,500 RFU | > 2,500 RFU | > 2,500 RFU |  |
| WVFGSGLCK [Ph-p15, WVFGSGLCK] |  |  |  |  |  |  |  |  |  |  |  |  |  |  |  |  |  | no apparent effect; also recorded: no obvious physiological or behavioral effect |
